Residue numbers refer to the chain shown, from its start. Values joined by “and” are separate entries in the source; they are usually repeats but may differ in a detail not shown here. Equal entries are not always repeated. Where two headings read alike, the source gives them in different places.
T1: human CD20 (human, UniProt P11836 1-297)
T1 construct: whole, on cells; Tetra-spanin type membrane antigen, always presented on cells; also called CD20 wildtype; wild type CD20
T1 sequence (looked up): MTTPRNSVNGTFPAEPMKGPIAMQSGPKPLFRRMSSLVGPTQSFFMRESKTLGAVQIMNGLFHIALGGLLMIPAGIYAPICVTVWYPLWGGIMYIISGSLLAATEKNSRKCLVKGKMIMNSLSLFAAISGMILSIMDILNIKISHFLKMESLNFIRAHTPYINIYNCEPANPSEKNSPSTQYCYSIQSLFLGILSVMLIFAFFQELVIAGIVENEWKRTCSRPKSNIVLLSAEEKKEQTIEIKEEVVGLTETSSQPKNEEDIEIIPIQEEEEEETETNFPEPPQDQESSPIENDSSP

T2: CD20-A170S P172S variant (human, UniProt P11836 1-297)
T2 construct: whole, on cells; also called CD20-AP; CD20AP
T2 sequence (looked up): T1 sequence (looked up) with A170S, P172S

B1: chCD20-4 (antibody, V domains shown)
VH: EVKVEESGGGLVKTGGSMKLSCVASGFSFNNYWMNWVRQSPEKGLEWVAEIRLKSNNYATHYVESVKGRFTISRDDSKSSVYLQMNNLRAEDTGIYYCTGWDDYAMDHWGQGISVTVSS
VL: DIVMTQSQKFMSTSVGDRVSVNCKASQNVGTNVAWYQQKPRQSPKGLIYSASFRYSGVPDRFTGSGSGTDFTLTIFNVQSDDLAEYFCQQYNNYPLTFGGGTKLEIKR
notes: Chimeric antibody: murine CD20-4 variable regions cloned in frame with human constant regions (plasmids pchCD20-4HCN and pchCD20-4LCZ), expressed in HEK-293T; the murine VL/VH entries 5 and 6 are used; a huIgG1 isotype control was used beside it; also called chimeric CD20-4
B2: muCD20-4 (antibody, mouse IgG2a, kappa, V domains shown)
VH: B1 VH
VL: B1 VL
notes: Murine monoclonal antibody purified from hybridoma supernatant (ATCC PTA-10485 or PTA-10561); also called murine CD20-4
B3: huCD20-4 (antibody, human IgG1, kappa, V domains shown)
VH: B1 VH with K3Q, K13Q, T14P, K19R, E42G, E64D
VL: B1 VL with V3Q, Q8P, K9S, F10T, R41G, Q42K, D60S, S80P
notes: Resurfaced antibody expressed in HEK-293T cells; also called humanized CD20-4; resurfaced CD20-4
B4: huCD20-4-SMCC-DM1 (antibody, human IgG1, kappa, V domains shown)
VH: B1 VH with K3Q, K13Q, T14P, K19R, E42G, E64D
VL: B1 VL with V3Q, Q8P, K9S, F10T, R41G, Q42K, D60S, S80P
modifications: DM1 linked through SMCC (thioether), 3.5-4 DM1 molecules per antibody; sites not stated
notes: also called huCD20-4-MCC-DM1
B5: huCD20-4-SPDB-DM4 (antibody, human IgG1, kappa, V domains shown)
VH: B1 VH with K3Q, K13Q, T14P, K19R, E42G, E64D
VL: B1 VL with V3Q, Q8P, K9S, F10T, R41G, Q42K, D60S, S80P
modifications: DM4 linked through SPDB (disulfide), 3.5-4 DM4 molecules per antibody; sites not stated
B6: huCD20-4-SPP-DM1 (antibody, human IgG1, kappa, V domains shown)
VH: B1 VH with K3Q, K13Q, T14P, K19R, E42G, E64D
VL: B1 VL with V3Q, Q8P, K9S, F10T, R41G, Q42K, D60S, S80P
modifications: DM1 linked through SPP (disulfide), 3.5-4 DM1 molecules per antibody; sites not stated
B7: rituximab (antibody, V domains shown)
VH: QVQLQQPGAELVKPGASVKMSCKASGYTFTSYNMHWVKQTPGRGLEWIGAIYPGNGDTSYNQKFKGKATLTADKSSSTAYMQLSSLTSEDSAVYYCARSTYYGGDWYFNVWGAGTTVTVSA
VL: QIVLSQSPAILSASPGEKVTMTCRASSSVSYIHWFQQKPGSSPKPWIYATSNLASGVPVRFSGSGSGTSYSLTISRVEAEDAATYYCQQWTSNPPTFGGGTKLEIK
B8: 2F2 (antibody, V domains shown)
VH: EVQLVESGGGLVQPGRSLRLSCAASGFTFNDYAMHWVRQAPGKGLEWVSTISWNSGSIGYADSVKGRFTISRDNAKKSLYLQMNSLRAEDTALYYCAKDIQYGNYYYGMDVWGQGTTVTVSS
VL: EIVLTQSPATLSLSPGERATLSCRASQSVSSYLAWYQQKPGQAPRLLIYDASNRATGIPARFSGSGSGTDFTLTISSLEPEDFAVYYCQQRSNWPITFGQGTRLEIK
B9: chCD20-20 (antibody, V domains shown)
VH: QVQLQQSGAELARPGASVKLSCKASGYTFTSYWMHWVKQRPGQGLEWIGAIYPGDGDTRYTQKFKGKATLTADKSSYTAYMQLSSLASEDSAVYYCARSPDFYGSGYDFDYWGQGTTLTVSS
VL: DIKMTQSPSSMYTSLGERVTITCKASQDINSFLSWFQQKPGKSPKTLIYRAYRLVDGVPSRFSGSGSGQDYSLTISSLEFEDMGIYYCLQSGAFPLTFGAGTKLELKR
notes: Chimeric antibody: murine CD20-20 variable regions with human constant regions (equivalent plasmids to chCD20-4), expressed in HEK-293T; the murine VL/VH entries 7 and 8 are used; also called chimeric CD20-20
B10: muCD20-20 (antibody, mouse IgG1, kappa, V domains shown)
VH: B9 VH
VL: B9 VL
notes: Murine monoclonal antibody purified from hybridoma supernatant; also called murine CD20-20

Tests used:
human CD20 [1] = target: T1, human CD20; test: flow cytometry titration on BJAB cells, apparent Kd from the dose-response curve
Experimental: (§1) Data analysis was performed using CellQuest Pro (BD Biosciences, San Diego, US) and for each sample the mean fluorescence intensity for FL1 (MFI) was exported and plotted against the antibody concentration in a semi-log plot.
The value for the apparent dissociation constant (Kd) of each antibody was calculated using GraphPad Prism v4 (GraphPad software, San Diego, Calif.).

human CD20 [2] = target: T1, human CD20; test: cell-based or functional assay
human CD20 [3] = target: T1, human CD20; test: flow cytometry, BJAB cells, MFI against antibody concentration
Experimental: as §1

CD20-A170S P172S variant [4] = target: T2, CD20-A170S P172S variant; test: flow cytometry, 300-19 cells transfected with CD20-A170S P172S, MFI against antibody concentration
human CD20 [5] = target: T1, human CD20; test: flow cytometry titration on BJAB cells, apparent Kd from the binding curve
Experimental: as §1

human CD20 [6] = target: T1, human CD20; test: flow cytometry, 300-19 cells transfected with wild type human CD20, MFI against antibody concentration
human CD20 [7] = target: T1, human CD20; test: cell-based or functional assay; remark: listed apart in the source
CD20-A170S P172S variant [8] = target: T2, CD20-A170S P172S variant; test: flow cytometry, 300-19 cells transfected with CD20-A170S P172S, MFI against antibody concentration; remark: listed apart in the source

Binder | Kd (human CD20 [1]) [nM] | EC50 of CDC, WSU-DLCL-2 cells, 5% human complement (human CD20 [2]) | EC50 of ADCC, Granta-519 cells, human NK cells, LDH release (human CD20 [2]) | EC50 of ADCC, SU-DHL-4 cells, human NK cells, LDH release (human CD20 [2]) [ng/mL] | EC50 of CDC, Daudi cells, 5% human complement (human CD20 [2]) | Kd (human CD20 [5]) [nM] | EC50 of in vitro cytotoxicity (WST-8), Daudi cells (human CD20 [2]) [nM] | EC50 of in vitro cytotoxicity (WST-8), Ramos cells (human CD20 [2]) | also measured
B1 | 0.47 | 27 ng/mL |  |  |  |  |  |  | 
B2 | 0.97 |  |  |  |  |  |  |  | 
B3 | 0.46 | ~40 ng/mL | 0.28 ng/mL and 0.29 ng/mL | 0.2 | 50 ng/mL and ~50 ng/mL | 1 |  |  | EC50 (read off the curve) (human CD20 [3]): ~0.6 nM; binding result (CD20-A170S P172S variant [4]): no binding (tested: 1e-7 M); EC50 of ADCC, DOHH-2 cells, human NK cells, LDH release (human CD20 [2]): 0.57 ng/mL; EC50 of ADCC, JVM-13 cells, human NK cells, LDH release (human CD20 [2]): 0.097 ng/mL; EC50 of ADCC, Ramos cells, human NK cells, LDH release (human CD20 [2]): 0.4 ng/mL; EC50 of ADCC, WSU-DLCL-2 cells, human NK cells, LDH release (human CD20 [2]): 0.4 ng/mL; EC50 of CDC, Raji cells, 5% human complement (human CD20 [2]): 32 ng/mL; EC50 of CDC, Ramos cells, 5% human complement (human CD20 [2]): 10 ng/mL; EC50 of CDC, SU-DHL-4 cells, 5% human complement (human CD20 [2]): 30 ng/mL; EC50 (read off the curve) (human CD20 [6]): ~1 nM
B4 |  | ~40 ng/mL | 0.28 ng/mL | 0.27 | ~80 ng/mL | 0.9 | 0.21 | 0.22 nM and 0.35 nM | EC50 of in vitro cytotoxicity (WST-8), DOHH-2 cells (human CD20 [7]): 0.11 nM; EC50 of in vitro cytotoxicity (WST-8), Daudi cells (human CD20 [7]): 0.29 nM; EC50 of in vitro cytotoxicity (WST-8), Granta-519 cells (human CD20 [7]): 0.03 nM; EC50 of in vitro cytotoxicity (WST-8), Ramos cells (human CD20 [7]): 0.54 nM; EC50 of in vitro cytotoxicity (WST-8), SC-1 cells (human CD20 [7]): 0.6 nM
B5 |  | ~40 ng/mL |  |  |  |  | 0.19 | 0.39 nM | 
B6 |  |  |  |  |  | 1.5 | 0.4 | 0.35 nM | 
B7 |  | 350 ng/mL and 190 ng/mL | 1.23 ng/mL | 0.53 | 300 ng/mL |  |  |  | EC50 of ADCC, DOHH-2 cells, human NK cells, LDH release (human CD20 [2]): 1.08 ng/mL; EC50 of ADCC, JVM-13 cells, human NK cells, LDH release (human CD20 [2]): 0.29 ng/mL; EC50 of ADCC, Ramos cells, human NK cells, LDH release (human CD20 [2]): 3.5 ng/mL; EC50 of CDC, Raji cells, 5% human complement (human CD20 [2]): 110 ng/mL; EC50 of CDC, Ramos cells, 5% human complement (human CD20 [2]): 60 ng/mL; EC50 of CDC, SU-DHL-4 cells, 5% human complement (human CD20 [2]): 310 ng/mL
B8 |  |  |  |  |  |  |  |  | EC50 (read off the curve) (CD20-A170S P172S variant [4]): ~2 nM; EC50 (read off the curve) (CD20-A170S P172S variant [8]): ~4 nM
B9 | 0.42 | 84 ng/mL |  |  |  |  |  |  | EC50 (read off the curve) (human CD20 [6]): ~0.7 nM
B10 | 0.59 |  |  |  |  |  |  |  | 

Reference: patent US20110195022A1 (IMMUNOGEN, published 2011)
